Experimental data: the RNAGym collection of RNA variant scans (doi:10.1073/pnas.2313332121)

B1: TPR t1 (parent)
chain: GACCAAUCUGCCCUCAGAGCUCGAGAACAUCUUCGGAUGCAGAGGAGGCAGGCUUCGGUGGCGCGAUAGCGCCAACGUCCUCAACCUCCAAUGCAUCCCACCACAUGAUGAUGCCUGAAGAGCCUUGGUUUUUUG

Variants of: B1
Test: polymerase ribozyme fitness, log enrichment relative to wild type (log ratio); higher = more active; in vitro selection for triplet polymerase activity
Summary of the method: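 One round of in vitro selection, in triplicate, was applied to PCR-built, transcribed mutant libraries of each subunit of a heterodimeric triplet polymerase ribozyme. The steps were annealing with a biotinylated primer, partner subunit and triplets, incubation frozen at −7 °C, gel excision of extended constructs, streptavidin-bead capture and RT-PCR. Fitness is the logarithm, base 2, of genotype enrichment over wild-type enrichment from inverse-variance-weighted replicate averages of Illumina-sequenced inputs and outputs, keeping genotypes with ≥10 input reads and ≥1 read per output.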

Variant	polymerase ribozyme fitness (log ratio)
GACCAAUCUGACCUCAGAGCUCGAGAACAUCUUCGGAUGCAGAGGAGGCAGGCUUCGGUGGCGCGAUAACGCCAACGUCCUCAACUUCCAAUGCAUCCCACCACAUGAUGAUGCCUGAAGAGCCUUGGUUUUUUG [C11A G69A C86U]	-3.51
GACCAAUUUGCCCUCAGAGCUCGAGAACAUCUUCGGAUGCAGAGGAGACGGGCUUCGGUGGCGCGAUAGCGCCAACGUCCUCAACCUCCAAUGCAUCCCACCACAUGAUGAUGCCUGAAGAGCCUUGGUUUUUUG [C8U G48A A50G]	-1.52
GACCAAUCUGCCCUCAGAGCUCGAGAACAUCUUCGGAUGCAGAGGAGGCAGGCUUCGGUGGCGCGAUAGCGCCAACGUCCUCAACCUCCAAUGCAUCCCACCACGUGAUGAUGCCUGAAGAGCUUUGGUUUUUUG [A105G C124U]	-0.654
GACCAAUCUGCCCUCAGAGCUCGAGAACAUCUUCGGAUGCAGAGGAGGCAGGCUUCGGUGGCGCGAUAGAGCCAACGUCCUCAACCUCCAAUCCAUCCCACCACAUGAUGAUGCCUGAAGAGCCUUGGUUUUUUG [C70A G93C]	-3.33
GACCAAUCUGCCCUCAGAGCUCGAGAACAUCUUCGGAUGCAGAGGAGGCAGGCUUCGGUUGCGCGAUAGCGCCAACGUCCUCAACCUCCAAUGCAUCCCACCACAUGAUUAUGCCUGAAGAGCCUUGGUUUUUUG [G60U G110U]	-0.553
GACCAAUCUGCCCUCAGAGCUCGAGAACAUCUUCGGAUGCUGAGGAGGCAGGCUUCGGUGGCGCGAUAGCGCCAACGUCCUCAACCUCCAAUGCAUCUCACCACAUGAUGAUGCCUGAAGAGCCUUGGUUUUUUG [A41U C98U]	-2.83
GUCCAAUCUGCCCUCAGAUCUCGAUGUCAUCUUCGGAUGCAGAGGAGGCAGGCUUCGGUGGCGCGAUAGCGCCAACGUCCUCAACCUCCAAUGCAUCCCACCACAUGAUGAUGCCUGAAGAGCCUUGGUUUUUUG [A2U G19U G25U A26G A27U]	-6.04
GACCAAUCUGCCCUCAGAGCUCGAGAACAUCUUCGGAUGCAGAGGAGGCAGGCUUCGGUGGCGUGAUAGCGCCAACGUCCUCAACCUCCAAUGCAUCCCAACACAUGAUCAUGCCUGAAGAGCCUUGGUUUUUUG [C64U C101A G110C]	-7.07
GACCAAUCUGCCCUCAGAGCUCGAGAACAUCUUCGGAUGCAGAGGAGGCAGGCUUCGGUUGCGCGAUAGCGCCAACGUCCUCAACCUCCAAUGCAUCCCACUACAUGAUGAUGCCUGAAGAGCCUUGGUUUUUUG [G60U C102U]	-1.09
GACCAAUCUGCCCUCAGAGCUCGAGAACAUCUUCGGAUGCAGAGGAGGCAGUCUUCGGUGGCGCGAUAGCGCCGACGUCCUCAGCCUCCAAUGCAUCCCACCACAUGAUGAUGCCUGAAGUGCCUUGGUUUUUUG [G52U A74G A84G A121U]	0.168
GACCAAUCUGCCCUCAGAGCUCGAGAACAUCUUCGGAUGCCGAGGAGGCAGGCUUCGGUGGCGCGAUAGCGCCAACGUCCUCAACCUCCAAUGCAUCCCACCACAUGAUGAUGCCUUAAGAGAGUUGGUUUUUUG [A41C G117U C123A C124G]	-3.97
GUCCAAUCUGCACUCAGAGCUCGAGAACAUCUUCGGAUGCAGAGGAGGUAGGCUUCGGUGGCGCGAUAGCGCCAACGUCCUCAACCUCCAAUGCAUCCCACCACAUGAUGAUGCCUGAAGAGCCUUGGUUUUUUG [A2U C12A C49U]	-3.6
GACCAAUCUGCCCUCAGAGCUCGAGAACAUCUUCGGAUGCAGAGGAGGCAGGCUUCGGUGGCGCGAUAGCGCCAACGUCCUCAAACUCCAAUGCAUCCCACCACAUGAUGAUCCCUGAAGACCCUUGGCUUUUUG [C85A G113C G122C U129C]	-4.98
GACCAAUCUGCCCUCAGAGCUCGAGAACAUCUUCGGAUGCAGAGGAGACAGGCUUCGGUGGCACGAUAGCGCCAACGUCCUCAACCUCCAACGCAUCCCACCACAUGAUGAUGCCUGAAGAGCCUUGGUUUUUUG [G48A G63A U92C]	-3.14
GACCAAUCUGCCCUCAGAGCUCGAGAACAUCUUCGGAUGUAGAGGAGGCAGGCUUCGGUGGCGCGAUAGCGCUACCGUCCUCAACCUCCAAUGCAUCCCACCACAUGAUGAUGCCUGAAGAGCCUUGGUUUUUUG [C40U C73U A75C]	-0.514
GACCAAUCAGCCCUCAGAGCUCGAGAACAUCUUCGGAUGCAGAGGAGGCAGGUUUCGGUGGCGCGAUAGCGCCAACGUCCUCAACCUCCAAUGCAUCCCACCACAUGAUGAUGCCUGAAGAGCCUUGGUUUUUUG [U9A C53U]	0.789
GACCAAUCUGCCCUCAGAGCUCGAGAACAUCUUCGGAUGCAGAGGUGGCAGGCUUCGGUGGCGCGAUAGCGCCAACGUCCUCAACCUCCAAUGCAUCCCACCCCAUGAUGAUGCGUGAAGAGCCUUGGUUUUUUG [A46U A103C C115G]	-6.95
GACCAAUCUGCCCUCAGAGCUCGAGAACAUCUUCGGAUUCAGAGGAGGCAGGCUUCGGUGGCGCGAUAGCGCCAACGUCCUCAACCUUCAAUGCAUCCCACCACAUGAUGAUGCCUGAAGGGCCUUGGUUUUUUG [G39U C88U A121G]	0.804
GACCAAUCUGCCGUCAGAGCUCGAGAACAUCUUCGGAUGCAGAGGAGGCAGGCUUCGGUGGCGCGAUAGCGCCAACGUCCUCAACCUCCAAUGCAUCCCACCACACGAUGAUGCCUGAAGAGCCUUGGUUUUUUG [C13G U106C]	-2.21
GACCAAUCUGCCCUCAGAGCUCGAGAACAUCUUCGGAUACAGAGGAGGCAGGCUUCGGUGGCGCGAUAGCGCCAACGUCCUCAACCUCCAAUGCAUCCCACCACAUGAUGAUGCCUGAAGAGCCUUGAUUUUUUG [G39A G128A]	-2.58
GACCAAUCUGCACUCAGAGCUCGAGAACAUCUUCGGCUGCAGAGGCGGCAGGCUUCGGUGGCGCGAUAGCGCCAACGUCCUCAACCUUCAAUGCAUCCCACCACAUGAUGAUGCCUGAAGAGCCUUGGUUUUUUG [C12A A37C A46C C88U]	-2.57
